The Immune Epitope Database (IEDB)

Experiments:
[1] = target: HLA-B*58:01; test: IEDB peptide-MHC binding, cellular MHC/competitive/fluorescence; ≥ and ≤ were set here for values at or beyond the usual limits of such assays; details: source organism: Human herpesvirus 4 strain B95-8
[2] = target: HLA-B*53:01; test: IEDB peptide-MHC binding, purified MHC/competitive/fluorescence; ≥ and ≤ were set here for values at or beyond the usual limits of such assays; details: source organism: Human immunodeficiency virus 1
[3] = target: HLA-A*01:01; test: IEDB peptide-MHC binding, purified MHC/direct/fluorescence; filed as Kd, often an IC50 or EC50 that approximates it; ≥ and ≤ were set here for values at or beyond the usual limits of such assays
[4] = target: HLA-A*02:01; test: as above
[5] = target: HLA-A*03:01; test: as above
[6] = target: HLA-A*26:01; test: as above; details: source organism: Bacillus cereus H3081.97
[7] = target: HLA-A*26:02; test: as above; details: source organism: Bacillus cereus H3081.97
[8] = target: HLA-A*69:01; test: as above
[9] = target: HLA-B*07:02; test: as above
[10] = target: HLA-B*08:02; test: as above; details: source organism: Bacillus cereus H3081.97
[11] = target: HLA-B*15:01; test: as above
[12] = target: HLA-B*15:09; test: as above; details: source organism: Bacillus cereus H3081.97
[13] = target: HLA-B*27:05; test: as above
[14] = target: HLA-B*38:01; test: as above; details: source organism: Bacillus cereus H3081.97
[15] = target: HLA-B*39:01; test: as above
[16] = target: HLA-B*40:01; test: as above
[17] = target: HLA-B*48:01; test: as above
[18] = target: HLA-B*51:01; test: as above; details: source organism: Bacillus cereus H3081.97
[19] = target: HLA-B*57:01; test: as above
[20] = target: HLA-B*58:01; test: as above
[21] = target: HLA-A*11:01; test: IEDB peptide-MHC binding, purified MHC/competitive/fluorescence; filed as Kd, often an IC50 or EC50 that approximates it; ≥ and ≤ were set here for values at or beyond the usual limits of such assays; details: source organism: Bacillus thuringiensis serovar sotto str. T04001
[22] = target: HLA-A*30:01; test: as above; details: source organism: Bacillus thuringiensis serovar sotto str. T04001
[23] = target: HLA-A*31:01; test: as above; details: source organism: Bacillus thuringiensis serovar sotto str. T04001
[24] = target: HLA-B*08:01; test: as above; details: source organism: Bacillus thuringiensis serovar sotto str. T04001
[25] = target: HLA-B*15:17; test: as above; details: source organism: Bacillus thuringiensis serovar sotto str. T04001
[26] = target: HLA-A*11:01; test: IEDB peptide-MHC binding, purified MHC/direct/fluorescence; filed as Kd, often an IC50 or EC50 that approximates it; ≥ and ≤ were set here for values at or beyond the usual limits of such assays; details: source organism: Influenza A virus (A/chicken/Thailand/LV1NF/2004(H5N1))
[27] = target: HLA-A*31:01; test: as above; details: source organism: Influenza A virus (A/chicken/Thailand/LV1NF/2004(H5N1))
[28] = target: HLA-B*15:17; test: as above; details: source organism: Influenza A virus (A/chicken/Thailand/LV1NF/2004(H5N1))
[29] = target: HLA-B*18:01; test: as above; details: source organism: Influenza A virus (A/chicken/Thailand/LV1NF/2004(H5N1))
[30] = target: HLA-B*44:02; test: as above; details: source organism: Influenza A virus (A/chicken/Thailand/LV1NF/2004(H5N1))
[31] = target: HLA-A*26:03; test: IEDB peptide-MHC binding, purified MHC/competitive/fluorescence; filed as Kd, often an IC50 or EC50 that approximates it; ≥ and ≤ were set here for values at or beyond the usual limits of such assays; details: source organism: Influenza A virus
[32] = source organism: Bacillus anthracis
[33] = source organism: Influenza A virus (A/chicken/Thailand/LV1NF/2004(H5N1))

## ATLNICNFW
[1]
  IC50: 5 µM

## WPVKVIHT
[2]
  IC50: ≥ 20 µM

## TVIRFWHAM
[3]; [32]
  Kd: ≥ 20 µM
[4]; [32]
  Kd: ≥ 20 µM
[5]; [32]
  Kd: ≥ 20 µM
[6]
  Kd: 0.012 µM
[7]
  Kd: ≤ 0.001 µM
[8]; [32]
  Kd: ≤ 0.001 µM
[9]; [32]
  Kd: 1.81 µM
[10]
  Kd: ≥ 20 µM
[11]; [32]
  Kd: 0.0207 µM
[12]
  Kd: 6.04 µM
[13]; [32]
  Kd: ≥ 20 µM
[14]
  Kd: ≥ 20 µM
[15]; source organism: Bacillus cereus H3081.97
  Kd: 0.05 µM
[16]; [32]
  Kd: ≥ 20 µM
[17]; [32]
  Kd: ≥ 20 µM
[18]
  Kd: ≥ 20 µM
[19]; [32]
  Kd: 0.593 µM
[20]; [32]
  Kd: 0.074 µM
[21]
  Kd: 0.0979 µM
[22]
  Kd: 0.168 µM
[23]
  Kd: 0.0344 µM
[24]
  Kd: ≥ 20 µM
[25]
  Kd: 0.293 µM

## EMIWDPNGW
[3]; [33]
  Kd: ≥ 20 µM
[4]; [33]
  Kd: ≥ 20 µM
[5]; [33]
  Kd: ≥ 20 µM
[26]
  Kd: ≥ 20 µM
[27]
  Kd: ≥ 20 µM
[8]; [33]
  Kd: ≥ 20 µM
[9]; [33]
  Kd: ≥ 20 µM
[11]; [33]
  Kd: ≥ 20 µM
[28]
  Kd: ≥ 20 µM
[29]
  Kd: 2 µM
[13]; [33]
  Kd: ≥ 20 µM
[15]; source organism: Influenza A virus (A/chicken/Hebei/706/2005(H5N1))
  Kd: ≥ 20 µM
[16]; [33]
  Kd: ≥ 20 µM
[30]
  Kd: ≥ 20 µM
[17]; [33]
  Kd: ≥ 20 µM
[19]; [33]
  Kd: ≥ 20 µM
[20]; source organism: Influenza A virus (A/Puerto Rico/8/34/Mount Sinai(H1N1))
  Kd: 0.185 µM
[31]
  Kd: ≥ 20 µM
